Assay results reported in article PMC4169579, “Proteolytic Activity of Prostate-Specific Antigen (PSA) towards Protein Substrates and Effect of Peptides Stimulating PSA Activity” (PLoS ONE, 2014).
Several values for one entry are separate records, joined by “and”; a condition that tells them apart may be missing. Equal values may be shown once.

How the values were obtained:
PSA [1] = target: T1, PSA (Homo sapiens, UniProt P07288); assay: Proteolytic cleavage of protein substrates by PSA (SDS-PAGE, silver staining); type: biochemical; conditions: 37°C; for time for degradation of half of the intact protein: substrate 1 µM (0.5 µM semenogelin I)
T1 construct: from tissue; host or cells: pooled human seminal fluid
T1 sequence (P07288 25-261): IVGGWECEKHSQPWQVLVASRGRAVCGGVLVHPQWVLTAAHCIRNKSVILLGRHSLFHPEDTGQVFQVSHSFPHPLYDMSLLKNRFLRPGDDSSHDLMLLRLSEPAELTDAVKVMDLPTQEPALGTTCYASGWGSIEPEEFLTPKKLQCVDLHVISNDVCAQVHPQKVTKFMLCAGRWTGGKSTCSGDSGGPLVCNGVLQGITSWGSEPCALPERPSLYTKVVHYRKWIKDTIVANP
Protocol: The major form of active PSA (isoform PSA-B) was purified from pooled human seminal fluid by immunoaffinity chromatography followed by anion exchange chromatography. Semenogelins I and II were isolated from human seminal fluid as previously described, but instead of alkylating the proteins, the reducing agent 30 mM dithiothreitol (Sigma-Aldrich, St. Louis, MO) was included in all buffers during purification. Semenogelins were stored in the purification buffer containing 2 M urea and 5 mM EDTA at −70°C. Prior to cleavage by PSA, the buffer was exchanged to 50 mM Tris, pH 7.7, containing 0.15 M NaCl (TBS), with Amicon Ultra centrifugal filter units (MW cut-off 30 kDa) (Millipore, Cork, Ireland) at 4°C, and protein concentration was determined by measuring absorbance at 280 nm.
Protein LoBind tubes (Eppendorf AG, Hamburg, Germany) were used in all protein degradation experiments.
PSA (0.2–1 µM) and 0.5–1 µM of each protein substrate were incubated at 37°C for 22 h in TBS buffer. During the incubation, samples of 15 µl were taken at different time points: 0 min, 10 min, 30 min, 2 h, 5 h and 22 h, and stored at −20°C before further analysis.
Immediately after each incubation, reducing 4× SDS-loading buffer (8% SDS), containing 1 M β-mercaptoethanol or 75 mM dithiothreitol, was added to each sample and proteins were denatured at 70°C for 10 min. The samples were immediately analyzed by SDS-PAGE or frozen at −20°C. Frozen samples were heated again at 70°C before loading on the gel. The cleavage of protein substrates by PSA, i.e., the disappearance of the full-length protein bands, was quantified from scanned images of silver stained gels by the measurement of relative optical densities of the protein bands using ImageJ [40].
Proteins were separated using the XCell SureLock Mini Cell system and pre-cast NuPAGE Novex 4–12% Bis-Tris Gels (both from Invitrogen, Carlsbad, CA). MES running buffer, pH 7.3, containing 50 mM MES [2-(N-morpholino)ethanesulfonic acid] (Sigma-Aldrich), 50 mM Tris base, 3.5 mM SDS and 1 mM EDTA was used. Dithiothreitol (0.5 mM) (Sigma-Aldrich) was added to the cathode buffer chamber.
Proteins were visualized either by silver staining or Western blotting. For silver staining (modified from), the gel was fixed for one hour at room temperature in 30% ethanol, containing 0.5% acetic acid, and rinsed with 20% ethanol and water for 10 min each. Then the gel was sensitized with 0.02% sodium thiosulfate for 1 min and rinsed twice with water. After 30 min incubation in 0.2% AgNO3, the gel was rinsed briefly with water and proteins were detected with development solution, containing 700 µl/l of 37% formaldehyde, 0.001% sodium thiosulfate and 3% anhydrous Na2CO3. The development reaction was finished with stop solution containing 5% Tris and 2.5% acetic acid.

PSA [2] = target: T1, PSA; assay: N-terminal sequencing of nidogen-1 fragments generated by PSA; type: biochemical; conditions: recombinant human nidogen-1, 1 µM, 2 µM PSA, 22 h, 37°C; Edman degradation; UniProt P14543 numbering
Protocol: For N-terminal sequencing, 1 µM (10 µg) nidogen-1 was first incubated with 2 µM (5 µg) PSA for 22 h at 37°C. Then the resulting protein fragments were separated by SDS-PAGE and electroblotted onto polyvinylidene-difluoride (PVDF) membrane. After staining with Coomassie Brilliant Blue the protein fragments were directly sequenced by Edman-degradation using the Procise 494A Sequencer (Perkin Elmer Applied Biosystems, Foster City, CA).

HUVECs = assay: HUVEC tube formation assay on Matrigel; type: cell-based, human; conditions: two separate experiments
Protocol: Human umbilical vein endothelial cells (HUVECs) were isolated from umbilical cord veins and grown in Endothelial Cell Growth Medium (Promocell, Heidelberg, Germany) with 2% Ultroser G BioSepra serum substitute (PALL BioSepra, Cergy, France) and growth factors EGF and bFGF. For tube formation, HUVECs were grown on top of Matrigel (BD Biosciences) as described previously, [29].
To study the effect of PSA-cleaved protein fragments, 0.08 µM nidogen-1 or 0.4 µM galectin-3 (10 µg/ml each) were first incubated with 1 µM PSA for 24 h at 37°C in PBS (Lonza). Then PSA activity was blocked by one-hour incubation at room temperature with 2 µM monoclonal antibody 5C7 [38]. The mixture containing nidogen-1 or galectin-3 fragments with PSA blocked by antibody or the same amount of intact nidogen-1 or galectin-3 were added together with the cells onto gelled Matrigel and the cells were allowed to form tubular networks for 20 h. Control wells contained either PBS or 1 µM PSA. After overnight incubation, cell culture medium was collected from PBS and PSA control wells for SDS-PAGE and Western blotting. Images of tubular networks (100×magnification) were taken using an Axiovert 200 inverted light microscope connected to an AxioCam digital camera and visualized by AxioVision software (all from Zeiss, Göttingen, Germany).

PSA [3] = target: T1, PSA; conditions: more than half of semenogelin I degraded; ref Malm and coworkers (2000), [16], [63]; cited from earlier work
Protocol: In the present study, we compared the proteolytic activity of PSA towards several protein substrates. As shown previously, semenogelins are cleaved very effectively by PSA. Malm and coworkers (2000) reported that more than half of semenogelin I is degraded after 15 min incubation with PSA [16], [63] and we observed this after 11 min incubation. Proteolysis of the other protein substrates, i.e., fibronectin, IGFBP-3, galectin-3 and nidogen-1, took much longer, reflecting the high substrate specificity of PSA for semenogelins. […] However, the detailed mechanism of the antiangiogenic activity of PSA remains unclear. Some of the proteolytically produced fragments of extracellular matrix (ECM) proteins act as endogenous angiogenesis inhibitors and may mediate the antiangiogenic effect of PSA. […] Although plasminogen ...

[4] = 0.2 µM PSA, TBS, disappearance of full-length band

B1: nidogen-1: recombinant human nidogen-1, linker protein in the basement membrane (protein, UniProt P14543 29-1247, looked up)
Nidogen-1: LSRQELFPFGPGQGDLELEDGDDFVSPALELSGALRFYDRSDIDAVYVTTNGIIATSEPPAKESHPGLFPPTFGAVAPFLADLDTTDGLGKVYYREDLSPSITQRAAECVHRGFPEISFQPSSAVVVTWESVAPYQGPSRDPDQKGKRNTFQAVLASSDSSSYAIFLYPEDGLQFHTTFSKKENNQVPAVVAFSQGSVGFLWKSNGAYNIFANDRESVENLAKSSNSGQQGVWVFEIGSPATTNGVVPADVILGTEDGAEYDDEDEDYDLATTRLGLEDVGTTPFSYKALRRGGADTYSVPSVLSPRRAATERPLGPPTERTRSFQLAVETFHQQHPQVIDVDEVEETGVVFSYNTDSRQTCANNRHQCSVHAECRDYATGFCCSCVAGYTGNGRQCVAEGSPQRVNGKVKGRIFVGSSQVPIVFENTDLHSYVVMNHGRSYTAISTIPETVGYSLLPLAPVGGIIGWMFAVEQDGFKNGFSITGGEFTRQAEVTFVGHPGNLVIKQRFSGIDEHGHLTIDTELEGRVPQIPFGSSVHIEPYTELYHYSTSVITSSSTREYTVTEPERDGASPSRIYTYQWRQTITFQECVHDDSRPALPSTQQLSVDSVFVLYNQEEKILRYALSNSIGPVREGSPDALQNPCYIGTHGCDTNAACRPGPRTQFTCECSIGFRGDGRTCYDIDECSEQPSVCGSHTICNNHPGTFRCECVEGYQFSDEGTCVAVVDQRPINYCETGLHNCDIPQRAQCIYTGGSSYTCSCLPGFSGDGQACQDVDECQPSRCHPDAFCYNTPGSFTCQCKPGYQGDGFRCVPGEVEKTRCQHEREHILGAAGATDPQRPIPPGLFVPECDAHGHYAPTQCHGSTGYCWCVDRDGREVEGTRTRPGMTPPCLSTVAPPIHQGPAVPTAVIPLPPGTHLLFAQTGKIERLPLEGNTMRKTEAKAFLHVPAKVIIGLAFDCVDKMVYWTDITEPSIGRASLHGGEPTTIIRQDLGSPEGIAVDHLGRNIFWTDSNLDRIEVAKLDGTQRRVLFETDLVNPRGIVTDSVRGNLYWTDWNRDNPKIETSYMDGTNRRILVQDDLGLPNGLTFDAFSSQLCWVDAGTNRAECLNPSQPSRRKALEGLQYPFAVTSYGKNLYFTDWKMNSVVALDLAISKETDAFQPHKQTRLYGITTALSQCPQGHNYCSVNNGGCTHLCLATPGSRTCRCPDNTLGVDCIEQK
PSA [1]; 0.2 µM PSA, 1 µM substrate, TBS, disappearance of full-length band
  time for degradation of 50% of the protein: 22 h
PSA [1]; 1 µM PSA, 0.5 µM recombinant human nidogen-1, 20 h
  size of nidogen-1 fragments formed by PSA: 85 kDa and 55 kDa
PSA [2]
  cleavage site of PSA in nidogen-1: GVVF^380 ↓ SYNTD
HUVECs; 10 µg/ml (0.08 µM nidogen-1, 0.4 µM galectin-3) precleaved by 1 µM PSA 24 h, PSA blocked by mAb 5C7, 20 h
  effect on tube formation, PSA-generated fragments: did not have any effect on tube formation
HUVECs; 10 µg/ml (0.08 µM nidogen-1, 0.4 µM galectin-3), 20 h, HUVECs on Matrigel
  effect on tube formation, full-length protein: did not have any effect on tube formation

B2: semenogelin I: isolated from human seminal fluid (protein, UniProt P04279 24-462, looked up)
Semenogelin-1: QKGGSKGRLPSEFSQFPHGQKGQHYSGQKGKQQTESKGSFSIQYTYHVDANDHDQSRKSQQYDLNALHKTTKSQRHLGGSQQLLHNKQEGRDHDKSKGHFHRVVIHHKGGKAHRGTQNPSQDQGNSPSGKGISSQYSNTEERLWVHGLSKEQTSVSGAQKGRKQGGSQSSYVLQTEELVANKQQRETKNSHQNKGHYQNVVEVREEHSSKVQTSLCPAHQDKLQHGSKDIFSTQDELLVYNKNQHQTKNLNQDQQHGRKANKISYQSSSTEERRLHYGENGVQKDVSQSSIYSQTEEKAQGKSQKQITIPSQEQEHSQKANKISYQSSSTEERRLHYGENGVQKDVSQRSIYSQTEKLVAGKSQIQAPNPKQEPWHGENAKGESGQSTNREQDLLSHEQKGRHQHGSHGGLDIVIIEQEDDSDRHLAQHLNNDRNPLFT
PSA [1]; [4]
  time for degradation of half of the intact protein: 11 min
PSA [3]
  incubation time with more than half degraded by PSA: 15 min

B3: semenogelin II: isolated from human seminal fluid (protein, UniProt Q02383 24-582, looked up)
Semenogelin-2: QKGGSKGQLPSGSSQFPHGQKGQHYFGQKDQQHTKSKGSFSIQHTYHVDINDHDWTRKSQQYDLNALHKATKSKQHLGGSQQLLNYKQEGRDHDKSKGHFHMIVIHHKGGQAHHGTQNPSQDQGNSPSGKGLSSQCSNTEKRLWVHGLSKEQASASGAQKGRTQGGSQSSYVLQTEELVVNKQQRETKNSHQNKGHYQNVVDVREEHSSKLQTSLHPAHQDRLQHGPKDIFTTQDELLVYNKNQHQTKNLSQDQEHGRKAHKISYPSSRTEERQLHHGEKSVQKDVSKGSISIQTEEKIHGKSQNQVTIHSQDQEHGHKENKISYQSSSTEERHLNCGEKGIQKGVSKGSISIQTEEQIHGKSQNQVRIPSQAQEYGHKENKISYQSSSTEERRLNSGEKDVQKGVSKGSISIQTEEKIHGKSQNQVTIPSQDQEHGHKENKMSYQSSSTEERRLNYGGKSTQKDVSQSSISFQIEKLVEGKSQIQTPNPNQDQWSGQNAKGKSGQSADSKQDLLSHEQKGRYKQESSESHNIVITEHEVAQDDHLTQQYNEDRNPIST
PSA [1]; [4]
  time for degradation of half of the intact protein: 80 min
